Substrate in this series: NCCc1c[nH]cn1
To be noted: Saccharomyces cerevisiae.

Description: Activity at yeast recombinant CA expressed in Escherichia coli

B1: Carbonic anhydrase (Saccharomyces cerevisiae S288c), P53615 (protein)
chain: MSATESSSIFTLSHNSNLQDILAANAKWASQMNNIQPTLFPDHNAKGQSPHTLFIGCSDSRYNENCLGVLPGEVFTWKNVANICHSEDLTLKATLEFAIICLKVNKVIICGHTDCGGIKTCLTNQREALPKVNCSHLYKYLDDIDTMYHEESQNLIHLKTQREKSHYLSHCNVKRQFNRIIENPTVQTAVQNGELQVYGLLYNVEDGLLQTVSTYTKVTPK
As to B1, the kcat amounted to 19.6 ×10⁵ /s.
